In patent US6303361, “Human glandular kallikrein-1 (hK2)” (Orion-Yhtyma Oyj, dated 2001):

What was measured:
α1-antichymotrypsin = α1-antichymotrypsin (Homo sapiens (Human), UniProt P01011); experiment: complex formation with serpin (method not described)
α1-antitrypsin = α1-antitrypsin (Homo sapiens (Human), UniProt P01009); experiment: as above

B1: recombinant Trp226-hK2 protein (Trp226-hK2 having the N-terminal dipeptide extension Ser-Arg, from insect cells) (enzyme)
chain: not shown
B1: no binding (α1-antichymotrypsin); no binding (α1-antitrypsin).
